# Reference: paper PMC9482650, “Quantitative fragmentomics allow affinity mapping of interactomes” (Nature Communications, 2022)
# Target: T1, APBA2_2, Q99767
# T1 sequence (Q99767 654-744, limits assumed, looked up): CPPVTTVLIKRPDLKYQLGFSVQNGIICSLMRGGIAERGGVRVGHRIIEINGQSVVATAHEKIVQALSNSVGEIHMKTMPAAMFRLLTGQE
# Assay: holdup assay
# Parameters: key: below the threshold = too weak to quantify, mostly under pKd 3.1 to 4
# Settings: plain residues with an end cap or a label only (N-terminal biotin on a linker: ado-ado)
row,pKd,Binder
1,3.51,"KIEDVEITLV [FCHSD2, O94868]"
2,below the threshold,"KEKASTETEC [TRPM1, Q7Z4N2]"

# Target: T2, ARHGAP21, Q5T5U3
# T2 sequence (Q5T5U3 45-169, limits assumed, looked up): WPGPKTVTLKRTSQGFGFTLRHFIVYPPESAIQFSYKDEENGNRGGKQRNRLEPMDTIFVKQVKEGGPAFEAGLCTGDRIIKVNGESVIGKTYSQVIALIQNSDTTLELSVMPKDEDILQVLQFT
# Assay: holdup assay
# Parameters: key: below the threshold = too weak to quantify, mostly under pKd 3.1 to 4
# Settings: plain residues with an end cap or a label only (N-terminal biotin on a linker: ado-ado)
row,pKd,Binder
1,4.01,"KIEDVEITLV [FCHSD2, O94868]"
2,3.97,"KEKASTETEC [TRPM1, Q7Z4N2]"

# Target: T3, CARD11, Q9BXL7
# T3 sequence (Q9BXL7 662-765, limits assumed, looked up): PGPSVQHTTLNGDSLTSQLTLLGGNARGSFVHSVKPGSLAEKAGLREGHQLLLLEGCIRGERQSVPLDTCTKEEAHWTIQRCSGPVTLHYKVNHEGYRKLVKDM
# Assay: holdup assay
# Parameters: key: below the threshold = too weak to quantify, mostly under pKd 3.1 to 4
# Settings: plain residues with an end cap or a label only (N-terminal biotin on a linker: ado-ado)
row,pKd,Binder
1,below the threshold,"KIEDVEITLV [FCHSD2, O94868]"
2,below the threshold,"KEKASTETEC [TRPM1, Q7Z4N2]"

# Target: T4, DFNB31_1, Q9P202
# T4 sequence (Q9P202 135-233, limits assumed, looked up): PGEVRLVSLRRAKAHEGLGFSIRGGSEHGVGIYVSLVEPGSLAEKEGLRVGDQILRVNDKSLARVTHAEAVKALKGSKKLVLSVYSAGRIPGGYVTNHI
# Assay: holdup assay
# Parameters: key: below the threshold = too weak to quantify, mostly under pKd 3.1 to 4
# Settings: plain residues with an end cap or a label only (N-terminal biotin on a linker: ado-ado)
row,pKd,Binder
1,3.48,"KIEDVEITLV [FCHSD2, O94868]"
2,below the threshold,"KEKASTETEC [TRPM1, Q7Z4N2]"

# Target: T5, DFNB31_3, Q9P202
# T5 sequence (Q9P202 811-907, limits assumed, looked up): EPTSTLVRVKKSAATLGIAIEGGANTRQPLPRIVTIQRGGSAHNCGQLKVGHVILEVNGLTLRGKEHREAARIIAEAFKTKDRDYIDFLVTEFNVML
# Assay: holdup assay
# Parameters: key: below the threshold = too weak to quantify, mostly under pKd 3.1 to 4
# Settings: plain residues with an end cap or a label only (N-terminal biotin on a linker: ado-ado)
row,pKd,Binder
1,4.79,"KIEDVEITLV [FCHSD2, O94868]"
2,3.64,"KEKASTETEC [TRPM1, Q7Z4N2]"

# Target: T6, FRMPD1, Q5SYB0
# T6 sequence (Q5SYB0 52-145, limits assumed, looked up): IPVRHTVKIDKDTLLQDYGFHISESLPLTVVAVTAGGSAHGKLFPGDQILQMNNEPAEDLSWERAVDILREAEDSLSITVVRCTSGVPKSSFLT
# Assay: holdup assay
# Parameters: key: below the threshold = too weak to quantify, mostly under pKd 3.1 to 4
# Settings: plain residues with an end cap or a label only (N-terminal biotin on a linker: ado-ado)
row,pKd,Binder
1,below the threshold,"KIEDVEITLV [FCHSD2, O94868]"
2,below the threshold,"KEKASTETEC [TRPM1, Q7Z4N2]"

# Target: GORASP1, Q9BQQ3
# Assay: holdup assay
# Parameters: key: below the threshold = too weak to quantify, mostly under pKd 3.1 to 4
# Settings: plain residues with an end cap or a label only (N-terminal biotin on a linker: ado-ado)
# GORASP1, Q9BQQ3, sequence (Q9BQQ3 1-208): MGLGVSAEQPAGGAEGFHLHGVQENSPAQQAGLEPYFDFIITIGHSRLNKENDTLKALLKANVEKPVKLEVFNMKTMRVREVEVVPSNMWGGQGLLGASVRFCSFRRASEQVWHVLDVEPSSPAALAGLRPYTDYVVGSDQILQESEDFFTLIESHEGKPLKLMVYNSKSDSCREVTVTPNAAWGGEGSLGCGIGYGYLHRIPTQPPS
row,pKd,Binder
1,3.91,"KIEDVEITLV [FCHSD2, O94868]"
2,below the threshold,"KEKASTETEC [TRPM1, Q7Z4N2]"

# Target: GRIP2_3, Q9C0E4
# Assay: holdup assay
# Parameters: key: below the threshold = too weak to quantify, mostly under pKd 3.1 to 4
# Settings: plain residues with an end cap or a label only (N-terminal biotin on a linker: ado-ado)
# GRIP2_3, Q9C0E4, sequence (Q9C0E4 238-339): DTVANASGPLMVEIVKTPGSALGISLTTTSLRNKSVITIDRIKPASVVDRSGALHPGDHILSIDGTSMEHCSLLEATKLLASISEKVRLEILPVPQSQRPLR
row,pKd,Binder
1,below the threshold,"KIEDVEITLV [FCHSD2, O94868]"
2,below the threshold,"KEKASTETEC [TRPM1, Q7Z4N2]"

# Target: GRIP2_7, Q9C0E4
# Assay: holdup assay
# Parameters: key: below the threshold = too weak to quantify, mostly under pKd 3.1 to 4
# Settings: plain residues with an end cap or a label only (N-terminal biotin on a linker: ado-ado)
# GRIP2_7, Q9C0E4, sequence (Q9C0E4 934-1023): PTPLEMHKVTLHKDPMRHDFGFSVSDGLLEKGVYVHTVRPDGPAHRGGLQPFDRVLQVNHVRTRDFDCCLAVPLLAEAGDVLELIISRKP
row,pKd,Binder
1,below the threshold,"KIEDVEITLV [FCHSD2, O94868]"
2,below the threshold,"KEKASTETEC [TRPM1, Q7Z4N2]"

# Target: T7, HTRA3, P83110
# T7 sequence (P83110 354-453, limits assumed, looked up): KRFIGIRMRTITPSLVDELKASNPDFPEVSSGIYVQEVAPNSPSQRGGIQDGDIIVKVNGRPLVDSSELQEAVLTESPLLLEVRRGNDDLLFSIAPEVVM
# Assay: holdup assay
# Parameters: key: below the threshold = too weak to quantify, mostly under pKd 3.1 to 4
# Settings: plain residues with an end cap or a label only (N-terminal biotin on a linker: ado-ado)
row,pKd,Binder
1,3.71,"KIEDVEITLV [FCHSD2, O94868]"
2,3.58,"KEKASTETEC [TRPM1, Q7Z4N2]"

# Target: LIMK2, P53671
# Assay: holdup assay
# Parameters: key: below the threshold = too weak to quantify, mostly under pKd 3.1 to 4
# Settings: plain residues with an end cap or a label only (N-terminal biotin on a linker: ado-ado)
# LIMK2, P53671, sequence (P53671 143-248): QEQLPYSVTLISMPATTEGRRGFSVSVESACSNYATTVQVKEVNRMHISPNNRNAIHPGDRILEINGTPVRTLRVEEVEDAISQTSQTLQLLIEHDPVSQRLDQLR
row,pKd,Binder
1,below the threshold,"KIEDVEITLV [FCHSD2, O94868]"
2,below the threshold,"KEKASTETEC [TRPM1, Q7Z4N2]"

# Target: MAGI1_2, Q96QZ7
# Assay: holdup assay
# Parameters: key: below the threshold = too weak to quantify, mostly under pKd 3.1 to 4
# Settings: plain residues with an end cap or a label only (N-terminal biotin on a linker: ado-ado)
# MAGI1_2, Q96QZ7, sequence (Q96QZ7 456-580): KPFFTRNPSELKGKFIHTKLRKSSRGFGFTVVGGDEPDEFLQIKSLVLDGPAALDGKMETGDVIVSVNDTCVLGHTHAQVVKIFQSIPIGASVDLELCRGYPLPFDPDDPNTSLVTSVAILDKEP
row,pKd,Binder
1,below the threshold,"KIEDVEITLV [FCHSD2, O94868]"
2,below the threshold,"KEKASTETEC [TRPM1, Q7Z4N2]"

# Target: NHERF4_2, Q86UT5
# Assay: holdup assay
# Parameters: key: below the threshold = too weak to quantify, mostly under pKd 3.1 to 4
# Settings: plain residues with an end cap or a label only (N-terminal biotin on a linker: ado-ado)
# NHERF4_2, Q86UT5, sequence (Q86UT5 220-308): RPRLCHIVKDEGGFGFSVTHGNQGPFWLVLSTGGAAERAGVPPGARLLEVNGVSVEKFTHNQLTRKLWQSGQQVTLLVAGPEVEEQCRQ
row,pKd,Binder
1,below the threshold,"KIEDVEITLV [FCHSD2, O94868]"
2,below the threshold,"KEKASTETEC [TRPM1, Q7Z4N2]"

# Target: T8, PARD3B_1, Q8TEW8
# T8 sequence (Q8TEW8 196-299, limits assumed, looked up): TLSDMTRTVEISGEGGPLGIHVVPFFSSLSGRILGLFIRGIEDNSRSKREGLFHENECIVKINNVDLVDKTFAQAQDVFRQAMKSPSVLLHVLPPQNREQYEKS
# Assay: holdup assay
# Parameters: key: below the threshold = too weak to quantify, mostly under pKd 3.1 to 4
# Settings: plain residues with an end cap or a label only (N-terminal biotin on a linker: ado-ado)
row,pKd,Binder
1,3.91,"KIEDVEITLV [FCHSD2, O94868]"
2,3.97,"KEKASTETEC [TRPM1, Q7Z4N2]"

# Target: PARD3_3, Q8TEW0
# Assay: holdup assay
# Parameters: key: below the threshold = too weak to quantify, mostly under pKd 3.1 to 4
# Settings: plain residues with an end cap or a label only (N-terminal biotin on a linker: ado-ado)
# PARD3_3, Q8TEW0, sequence (Q8TEW0 582-685): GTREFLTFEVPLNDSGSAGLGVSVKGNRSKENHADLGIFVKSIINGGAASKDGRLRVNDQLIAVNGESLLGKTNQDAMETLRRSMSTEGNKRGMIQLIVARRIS
row,pKd,Binder
1,3.99,"KIEDVEITLV [FCHSD2, O94868]"
2,below the threshold,"KEKASTETEC [TRPM1, Q7Z4N2]"

# Target: T9, PDZD7_3, Q9H5P4
# T9 sequence (Q9H5P4 857-944, limits assumed, looked up): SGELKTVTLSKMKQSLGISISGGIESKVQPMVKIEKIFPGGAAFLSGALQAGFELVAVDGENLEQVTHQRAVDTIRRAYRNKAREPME
# Assay: holdup assay
# Parameters: key: below the threshold = too weak to quantify, mostly under pKd 3.1 to 4
# Settings: plain residues with an end cap or a label only (N-terminal biotin on a linker: ado-ado)
row,pKd,Binder
1,5.46,"KIEDVEITLV [FCHSD2, O94868]"
2,below the threshold,"KEKASTETEC [TRPM1, Q7Z4N2]"

# Target: SCRIB_1, Q14160
# Assay: holdup assay
# Parameters: key: below the threshold = too weak to quantify, mostly under pKd 3.1 to 4
# Settings: plain residues with an end cap or a label only (N-terminal biotin on a linker: ado-ado)
# SCRIB_1, Q14160, sequence (Q14160 718-814): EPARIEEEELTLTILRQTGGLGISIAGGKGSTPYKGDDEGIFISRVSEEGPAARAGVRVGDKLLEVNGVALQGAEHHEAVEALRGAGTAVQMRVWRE
row,pKd,Binder
1,3.8,"KIEDVEITLV [FCHSD2, O94868]"
2,4.31,"KEKASTETEC [TRPM1, Q7Z4N2]"

# Target: SCRIB_3, Q14160
# Assay: holdup assay
# Parameters: key: below the threshold = too weak to quantify, mostly under pKd 3.1 to 4
# Settings: plain residues with an end cap or a label only (N-terminal biotin on a linker: ado-ado)
# SCRIB_3, Q14160, sequence (Q14160 999-1103): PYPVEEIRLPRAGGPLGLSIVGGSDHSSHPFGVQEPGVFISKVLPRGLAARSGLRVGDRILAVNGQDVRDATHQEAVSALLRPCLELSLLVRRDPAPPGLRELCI
row,pKd,Binder
1,3.48,"KIEDVEITLV [FCHSD2, O94868]"
2,4.23,"KEKASTETEC [TRPM1, Q7Z4N2]"

# Target: T10, SIPA1L2, Q9P2F8
# T10 sequence (Q9P2F8 945-1036, limits assumed, looked up): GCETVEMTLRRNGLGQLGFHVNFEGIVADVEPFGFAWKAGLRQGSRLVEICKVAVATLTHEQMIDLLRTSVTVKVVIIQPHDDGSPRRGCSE
# Assay: holdup assay
# Parameters: key: below the threshold = too weak to quantify, mostly under pKd 3.1 to 4
# Settings: plain residues with an end cap or a label only (N-terminal biotin on a linker: ado-ado)
row,pKd,Binder
1,below the threshold,"KIEDVEITLV [FCHSD2, O94868]"
2,below the threshold,"KEKASTETEC [TRPM1, Q7Z4N2]"

# Target: T11, SNTA1, Q13424
# T11 sequence (Q13424 82-180, limits assumed, looked up): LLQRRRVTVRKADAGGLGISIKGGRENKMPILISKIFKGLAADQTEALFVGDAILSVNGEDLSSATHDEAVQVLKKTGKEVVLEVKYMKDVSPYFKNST
# Assay: holdup assay
# Parameters: key: below the threshold = too weak to quantify, mostly under pKd 3.1 to 4
# Settings: plain residues with an end cap or a label only (N-terminal biotin on a linker: ado-ado)
row,pKd,Binder
1,3.76,"KIEDVEITLV [FCHSD2, O94868]"
2,3.77,"KEKASTETEC [TRPM1, Q7Z4N2]"

# Target: T12, SNTG1, Q9NSN8
# T12 sequence (Q9NSN8 52-150, limits assumed, looked up): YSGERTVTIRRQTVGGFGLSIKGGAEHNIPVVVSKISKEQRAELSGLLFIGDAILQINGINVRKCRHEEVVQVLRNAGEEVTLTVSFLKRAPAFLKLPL
# Assay: holdup assay
# Parameters: key: below the threshold = too weak to quantify, mostly under pKd 3.1 to 4
# Settings: plain residues with an end cap or a label only (N-terminal biotin on a linker: ado-ado)
row,pKd,Binder
1,4.14,"KIEDVEITLV [FCHSD2, O94868]"
2,below the threshold,"KEKASTETEC [TRPM1, Q7Z4N2]"

# Target: TJP1_2, Q07157
# Assay: holdup assay
# Parameters: key: below the threshold = too weak to quantify, mostly under pKd 3.1 to 4
# Settings: plain residues with an end cap or a label only (N-terminal biotin on a linker: ado-ado)
# TJP1_2, Q07157, sequence (Q07157 181-274): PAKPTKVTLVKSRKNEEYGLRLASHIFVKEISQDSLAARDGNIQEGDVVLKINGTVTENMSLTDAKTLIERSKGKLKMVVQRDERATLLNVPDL
row,pKd,Binder
1,below the threshold,"KIEDVEITLV [FCHSD2, O94868]"
2,below the threshold,"KEKASTETEC [TRPM1, Q7Z4N2]"

# Target: TJP2_1, Q9UDY2
# Assay: holdup assay
# Parameters: key: below the threshold = too weak to quantify, mostly under pKd 3.1 to 4
# Settings: plain residues with an end cap or a label only (N-terminal biotin on a linker: ado-ado)
# TJP2_1, Q9UDY2, sequence (Q9UDY2 24-128): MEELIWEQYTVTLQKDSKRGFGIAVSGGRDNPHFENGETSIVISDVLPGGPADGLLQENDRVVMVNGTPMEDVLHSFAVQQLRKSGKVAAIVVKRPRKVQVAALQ
row,pKd,Binder
1,below the threshold,"KIEDVEITLV [FCHSD2, O94868]"
2,below the threshold,"KEKASTETEC [TRPM1, Q7Z4N2]"

# Target: T13, TJP3_3, O95049
# T13 sequence (O95049 375-456, limits assumed, looked up): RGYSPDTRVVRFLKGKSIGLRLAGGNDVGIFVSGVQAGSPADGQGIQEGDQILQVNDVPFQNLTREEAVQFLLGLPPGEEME
# Assay: holdup assay
# Parameters: key: below the threshold = too weak to quantify, mostly under pKd 3.1 to 4
# Settings: plain residues with an end cap or a label only (N-terminal biotin on a linker: ado-ado)
row,pKd,Binder
1,below the threshold,"KIEDVEITLV [FCHSD2, O94868]"
2,below the threshold,"KEKASTETEC [TRPM1, Q7Z4N2]"
